Legend:
[1] = substrate: C[S+](CC[C@H](N)C(=O)[O-])C[C@H]1O[C@@H](n2cnc3c(N)ncnc32)[C@H](O)[C@@H]1O; assay: Radiometric EZ-tip methyltransferase assay, steady-state kinetics, SUV39H1; type: biochemical; conditions: other: SAM varied 0.1–100 μM, SUV39H1 100 nM, pH 7.9, 30 °C, 20 min, n = 3, SD
Text: (§1) HMT amino acids included in expression plasmids are as follows: EHMT1 = 982 to 1266; EHMT2 = 913 to 1193; SUV39H1 = full length with N-terminal maltose-binding protein; SUV39H2 = 162 to 410.
(§2) Michaelis-Menten saturation curves were generated under steady-state conditions with the non-titrated component concentration being present at ≥5× KM specific to each enzyme. 1 × 10^5 CPM values were provided by [methyl-^3H] SAM in each reaction. Reaction times and enzyme concentrations were optimized for each HMT to ensure substrate turnover remained below 20%. 50 μM H3 peptide was combined with varying SAM concentrations up to 100 μM and either EHMT1 (25 nM), EHMT2 (25 nM), SUV39H1 (100 nM), or SUV39H2 (25 nM) in histone methyltransferase (HMT) activity buffer (50 mM HEPES pH 7.9, 0.5 mM DTT, 0.1 mM AEBSF, 2 mM MgCl2, 0.01% v/v Triton X-100) with a final volume of 20 μl. Enzyme concentrations are calculated for the monomeric form. Reactions were incubated at 30 °C for 20 min before quenching with TFA for a final concentration of 2% v/v TFA. Then, the reactions were cleaned using StageTips (i.e., two Attract SPE disks (Affinisep) in a pipette tip) with 200 μl acidified water (0.5% v/v formic acid) and eluted with 100 μl elution buffer (80% v/v acetonitrile, 0.5% v/v formic acid). The eluates were added to 2 ml of Ultima Gold LSC Cocktail (Sigma-Aldrich) and counted on a scintillation counter (PerkinElmer). All CPM values were corrected for decreased StageTip capacity when peptide concentrations exceeded 10 μM.
(§3) CPM values were converted to rates of product formation (μM/min) and used to generate Michaelis-Menten kinetic constants via GraphPad Prism v9.5.0 via the following equation: Y = Et∗kcat∗X/(KM + X). Variable definitions are as follows: Y = rate of product formation/enzyme velocity; X = substrate concentration; Et = concentration of enzyme in reaction.

[2] = substrate: C[S+](CC[C@H](N)C(=O)[O-])C[C@H]1O[C@@H](n2cnc3c(N)ncnc32)[C@H](O)[C@@H]1O; assay: Radiometric EZ-tip methyltransferase assay, steady-state kinetics, EHMT1; type: biochemical, H. sapiens; conditions: other: SAM varied 0.1–100 μM, EHMT1 25 nM, pH 7.9, 30 °C, 20 min, n = 3, SD
Text: as §1, §2, §3

[3] = substrate: C[S+](CC[C@H](N)C(=O)[O-])C[C@H]1O[C@@H](n2cnc3c(N)ncnc32)[C@H](O)[C@@H]1O; assay: Radiometric EZ-tip methyltransferase assay, steady-state kinetics, SUV39H2; type: biochemical, H. sapiens; conditions: other: SAM varied 0.1–100 μM, SUV39H2 25 nM, pH 7.9, 30 °C, 20 min, n = 3, SD
Text: as §1, §2, §3

[4] = substrate: C[S+](CC[C@H](N)C(=O)[O-])C[C@H]1O[C@@H](n2cnc3c(N)ncnc32)[C@H](O)[C@@H]1O; assay: Radiometric EZ-tip methyltransferase assay, steady-state kinetics, EHMT2; type: biochemical, H. sapiens; conditions: other: SAM varied 0.1–100 μM, EHMT2 25 nM, pH 7.9, 30 °C, 20 min, n = 3, SD
Text: as §1, §2, §3

[5] = fixed H3K9me1 peptide H3(1–17) 50 μM
[6] = fixed H3K9me2 peptide H3(1–17) 50 μM
[7] = fixed H3K9un peptide H3(1–17) 50 μM

B1: SUV39H1 (Homo sapiens) (protein)
chain: MAENLKGCSVCCKSSWNQLQDLCRLAKLSCPALGISKRNLYDFEVEYLCDYKKIREQEYYLVKWRGYPDSESTWEPRQNLKCVRILKQFHKDLERELLRRHHRSKTPRHLDPSLANYLVQKAKQRRALRRWEQELNAKRSHLGRITVENEVDLDGPPRAFVYINEYRVGEGITLNQVAVGCECQDCLWAPTGGCCPGASLHKFAYNDQGQVRLRAGLPIYECNSRCRCGYDCPNRVVQKGIRYDLCIFRTDDGRGWGVRTLEKIRKNSFVMEYVGEIITSEEAERRGQIYDRQGATYLFDLDYVEDVYTVDAAYYGNISHFVNHSCDPNLQVYNVFIDNLDERLPRIAFFATRTIRAGEELTFDYNMQVDPVDMESTRMDSNFGLAGLPGSPKKRVRIECKCGTESCRKYLF
notes: made in house; host or cells: Rosetta E. coli (plasmid generated for this study)
[1]; [5]
  Km: 11.78 ± 3.85 µM
  kcat: 0.005 ± 0.000833 s⁻¹
  kcat/Km: 500 ± 167 M⁻¹ s⁻¹
[1]; [6]
  Km: 3.60 ± 1.72 µM
  kcat: 0.0005 ± 0.000167 s⁻¹
  kcat/Km: 167 ± 50 M⁻¹ s⁻¹
[1]; [7]
  Km: 4.52 ± 0.49 µM
  kcat: 0.00717 ± 0.000667 s⁻¹
  kcat/Km: 1670 ± 333 M⁻¹ s⁻¹

B2: EHMT1 catalytic domain (Homo sapiens) (protein)
chain: NSQVWSALQMSKALQDSAPDRPSPVERIVSRDIARGYERIPIPCVNAVDSEPCPSNYKYVSQNCVTSPMNIDRNITHLQYCVCIDDCSSSNCMCGQLSMRCWYDKDGRLLPEFNMAEPPLIFECNHACSCWRNCRNRVVQNGLRARLQLYRTRDMGWGVRSLQDIPPGTFVCEYVGELISDSEADVREEDSYLFDLDNKDGEVYCIDARFYGNVSRFINHHCEPNLVPVRVFMAHQDLRFPRIAFFSTRLIEAGEQLGFDYGERFWDIKGKLFSCRCGSPKCRHS
notes: EHMT1 = 982 to 1266; host or cells: Rosetta E. coli
[2]; [5]
  Km: 6.84 ± 1.81 µM
  kcat: 0.0335 ± 0.0025 s⁻¹
  kcat/Km: 5000 ± 833 M⁻¹ s⁻¹
[2]; [6]
  Km: 2.21 ± 0.65 µM
  kcat: 0.0112 ± 0.000333 s⁻¹
  kcat/Km: 5330 ± 1330 M⁻¹ s⁻¹
[2]; [7]
  Km: 13.51 ± 4.95 µM
  kcat: 0.211 ± 0.0108 s⁻¹
  kcat/Km: 16800 ± 4500 M⁻¹ s⁻¹

B3: SUV39H2 catalytic domain (Homo sapiens) (protein)
chain: LEGPPSDFYYINEYKPAPGISLVNEATFGCSCTDCFFQKCCPAEAGVLLAYNKNQQIKIPPGTPIYECNSRCQCGPDCPNRIVQKGTQYSLCIFRTSNGRGWGVKTLVKIKRMSFVMEYVGEVITSEEAERRGQFYDNKGITYLFDLDYESDEFTVDAARYGNVSHFVNHSCDPNLQVFNVFIDNLDTRLPRIALFSTRTINAGEELTFDYQMKGSGDISSDSIDHSPAKKRVRTVCKCGAVTCRGYLN
notes: host or cells: Rosetta E. coli
[3]; [5]
  Km: 9.85 ± 1.21 µM
  kcat: 0.059 ± 0.00383 s⁻¹
  kcat/Km: 6000 ± 500 M⁻¹ s⁻¹
[3]; [6]
  Km: 8.18 ± 3.14 µM
  kcat: 0.0703 ± 0.00583 s⁻¹
  kcat/Km: 9170 ± 2500 M⁻¹ s⁻¹
[3]; [7]
  Km: 4.70 ± 0.69 µM
  kcat: 0.0668 ± 0.00567 s⁻¹
  kcat/Km: 14300 ± 1330 M⁻¹ s⁻¹

B4: EHMT2 catalytic domain (Homo sapiens) (protein)
chain: NRAIRTEKIICRDVARGYENVPIPCVNGVDGEPCPEDYKYISENCETSTMNIDRNITHLQHCTCVDDCSSSNCLCGQLSIRCWYDKDGRLLQEFNKIEPPLIFECNQACSCWRNCKNRVVQSGIKVRLQLYRTAKMGWGVRALQTIPQGTFICEYVGELISDAEADVREDDSYLFDLDNKDGEVYCIDARYYGNISRFINHLCDPNIIPVRVFMLHQDLRFPRIAFFSSRDIRTGEELGFDYGDRFWDIKSKYFTCQCGSEKCKHSAEAIALEQSRLARLD
notes: EHMT2 = 913 to 1193; made in house; host or cells: Rosetta E. coli (plasmid from the laboratory of Peter W. Lewis)
[4]; [5]
  Km: 16.80 ± 2.69 µM
  kcat: 0.0358 ± 0.00383 s⁻¹
  kcat/Km: 2170 ± 167 M⁻¹ s⁻¹
[4]; [6]
  Km: 6.10 ± 1.0 µM
  kcat: 0.0175 ± 0.00117 s⁻¹
  kcat/Km: 2830 ± 500 M⁻¹ s⁻¹
[4]; [7]
  Km: 19.21 ± 2.00 µM
  kcat: 0.127 ± 0.00183 s⁻¹
  kcat/Km: 6670 ± 667 M⁻¹ s⁻¹

From paper PMC10404681, “Intrinsic catalytic properties of histone H3 lysine-9 methyltransferases preserve monomethylation levels under low S-adenosylmethionine” (The Journal of Biological Chemistry, 2023)
